# Results from the supplement of paper PMC9170038.
# System: K4 kissing-loop RNA reporter
# Experiment: apparent KD of K4 kissing-loop reporter; higher = weaker reporter binding
# Details: Eterna round: R107
# Method: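 RNA-MaP round R107: designed RNA switches with theophylline, tryptophan, arginine or FMN aptamers are transcribed on-chip within common flanks. They are titrated with a labelled K4 kissing-loop RNA reporter in RNA-MaP buffer (100 mM Tris pH 7.5, 80 mM KCl, 4 mM MgCl2), without ligand or with the indicated ligand. Median apparent KD per design.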
# [1] = input ligand: theophylline 20 uM
# [2] = input ligand: tryptophan 2.4 mM
# 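Note: bound reporter read as fluorescence of individual clusters on recovered sequencing chips by microscopy, with normalized cluster intensities fitted with a binding model.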
Sequence,apparent KD of K4 kissing-loop reporter (input ligand: FMN 200 uM),apparent KD of K4 kissing-loop reporter (input ligand: arginine 13.2 mM),apparent KD of K4 kissing-loop reporter (input ligand: none),apparent KD of K4 kissing-loop reporter [1],apparent KD of K4 kissing-loop reporter [2]
GUUCUCGAAACUCAGUGAUGUUGAGUUGCAGAGGAUAUCCGCACAUGGAGAAGGCUGCAGUAAUUUAAAGACUCAGCGGCGCUCC [Riare],112 nM,117 nM,115 nM,120 nM,115 nM
UAACUUGCAGUGAUGUUGCAAGAACUGGAUACCAGCAUGGAAACAUGCCCUUGGCAGCCAGAAGCUGGCUGAACAUCACGUCAGU [Design5],227 nM,140 nM,308 nM,159 nM,217 nM
UAAGAAUAAGUAGCAGUGAUGUUGCUACUACGAGGACCGGUACGGCCGCCACUCGAAUACGAGUGGAAGUAGCAACUACCACUCA [(H1)-(H2)-(Trp1)-(Trp2)-(T)'-(H)'-(T)''_Design7],114 nM,96.2 nM,125 nM,88 nM,135 nM
UAAUAAAUUCCAGCGAUGUCACUCUUCGAAGGAGCGGACGAAAGUCCAGGUAGGUCGCGAAGAGUGAUGUUCUUCGCGGCGCUGG [Omei KL Arginine A Exc A v3],167 nM,115 nM,183 nM,204 nM,174 nM
UAAUUUAUGUCUUUAAUUUUAUUAUCAGAUACCAGUGAUUUAUGACACCCUUGGCAGCUGUAUUGAGUGAUGUUCUUAUAUUAAA [JR_Nu_ExcTheophyA_Sub023],111 nM,111 nM,118 nM,190 nM,72.5 nM
UACACGACUCGUGUAAACCGAGGUAACAGGCAGGAUAUGUAACGGAACAGAAGGGCCAUGUUGCGUGUCCAGUGAUGUUGGAUGC [Vetedile],170 nM,231 nM,270 nM,272 nM,246 nM
UACAGGGAUAGUGAUGUUAUCCCAUGUGAUACCAGUGUCAUCCAACACCCUUGGCAGCAUACGGGCAGUGAUGUUGUUCUUGGUA [#17 K4 Theophylline A Exclusion],91.7 nM,75.4 nM,91.6 nM,77.5 nM,84.3 nM
UACCUGCUGUCAGGAUAUGAGUGCAGUGAUGUUGCACUCAACGUAACCAUCUUGAAAUGCAAACACUCAGAAGGGACGCGCGAAG [Onaninso],151 nM,99.8 nM,122 nM,91.8 nM,102 nM
UACUAACGUUAAGGAUAUGCGUCGAUUACCGGUAAGUGAUGUUUAGCGCCCGGGCAACGGUGGGUCGCAGAAGGUAAACACAGUU [theeternabot_sameState_KL_FMN_B_19],689 nM,551 nM,795 nM,640 nM,610 nM
UACUGGGCGAGUGAUGUUUGCUCAUGUGAUACCAGUGCCAUCCAACACCCUUGGCAGCAUGCGGGCAGUGAUGUUGUCCAUGGAA [Exclusion Theophylline A GF10],629 nM,597 nM,667 nM,645 nM,640 nM
UACUUUAAUUUAUAACUAUCUUUAUUUUGUCAGGAUAUCGUAUUGUCGAGAAGGGACUCUCUCAAGUGAUGUUUGAGAAAUCGUU [JR_SSFMNA_Sub024],84.8 nM,125 nM,115 nM,133 nM,87.9 nM
UAGAGUCACAAGACAGUGAUGUUGUCUACUGAGGAUAUCAUGAAUAUGAGAAGGCAGUGUUGGAGGUCUCUAACAACAGACUCUG [FMN A SS t3],237 nM,227 nM,389 nM,370 nM,280 nM
UAGGGCAUCGCAGGAUAUCCUGCUUAACGUUGGAUUCCAGUGAUGUUGGAAAGCCGGCCUAGGGUAGGAGAAGGGCGGACUUGAA [Riteteve],160 nM,167 nM,167 nM,187 nM,242 nM
UAGUCCUAGUGAUCCUUAUCAAGUGGUGGGCGAGGACCGGUACGGCCGCCACUCGACUAUGCAGUGAUGUUGCAAUCCGGACAAU [Exclusion - Tryptophan A (Freestyle 13)],191 nM,211 nM,194 nM,243 nM,179 nM
UAGUUGCCGGUUUGUAGGCUUCGGCAGUGGGAGGAUAUGUUGACCGACAGAAGGCCCAGUGAUGUUGGGCGAUUGGCGGUGAGAU [Antebear],50 nM,78.3 nM,145 nM,,123 nM
UAUACUAGACAAGAGAGAAUUCUCUCAAGAGAGGAUAUCCGAAUUCGGAGAAGGCUCGCUAAGUGAUGUUUGGAAUAGUCUAGAA [AK4 SS FMN A],418 nM,352 nM,339 nM,319 nM,384 nM
UAUACUAGACAAGAGAGAAUUCUCUCAAGAGAGGAUAUCCGAAUUCGGAGAAGGCUCUCUAAGUGAUGUUUGGAAUAGUCUAGAA [AK5 SS FMN A],660 nM,448 nM,737 nM,500 nM,500 nM

Sequence,apparent KD of K4 kissing-loop reporter (input ligand: FMN 200 uM),apparent KD of K4 kissing-loop reporter (input ligand: arginine 13.2 mM),apparent KD of K4 kissing-loop reporter (input ligand: none),apparent KD of K4 kissing-loop reporter [1],apparent KD of K4 kissing-loop reporter [2]
UAUAGCGUCAGAAGGAGCGUGAGUAUAACAUGGCUGGAGUGAUGUUCCAGGAGUUAAUACUCACAGGUAGGUCGCUGACUCCUGG [Arg B SS t2],173 nM,125 nM,92.8 nM,150 nM,174 nM
UAUGAAGGUGGAGGAUAUUGAUUGAAUCUUGGUCAGGAGUGAUGUUCCGGGAAGCCUUGGAUUCAUCGAGAAGGCCAAGGAUAGU [Extra 3],123 nM,344 nM,344 nM,330 nM,327 nM
UAUGUACACGGGUAGUUGUACAUCGAGGAAGGAGCGUGCGCAGGCACAGGUAGGUCGCCUCAGCGCACGAGUGAUGUUCGUGGGC [Xexegeus],276 nM,170 nM,257 nM,216 nM,247 nM
UAUGUCAUUCUCGACGGAGUGAUGUUCCGACGAGGACCGGUACGGCCGCCACUCGGCAGAAUUGAGUCUGUGAUCCUAGAUCAAU [theeternabot_exclusion_KL_Trp_A_44],120 nM,99.3 nM,116 nM,103 nM,200 nM
UAUUGCCACAGAGUGAUGUUCUGGCCGGAUACCAGCAUGCAAUUAUGCCCUUGGCAGCCGGAUGCGCGUCCAGCCACCGGGCCUG [theeternabot_exclusion_KL_Theo_A_29],1510 nM,783 nM,1310 nM,1280 nM,1140 nM
UAUUUAGUGACGGCCGCCACUAUGGUGAUUUAUUUGUUUGAGUGAUGUUUUGAUGUUUGAUUUUGUAGGACCGGGUUAUGUGUUG [yyycmullin],891 nM,688 nM,818 nM,752 nM,595 nM
UCAUGUGCCAGUGAUGUUGGCGUACGUGAUACCAGACGAAUAAAAGUCCCUUGGCAGCACAAAUAAGCCAAGAUAGAUGAAUGAU [Exclusion Theophylline A GF 1],130 nM,125 nM,132 nM,137 nM,116 nM
UCCAAGGACGAACCGGUAUGAUCACCGGAUACCAGAGGCGAAAGCCUCCCUUGGCAGCCGAGUGUAGUGAUGUUACACUGGUUCU,89.8 nM,82.8 nM,90.7 nM,94.5 nM,91.5 nM
UCGCAAAAGUCGGCCGCCACUCCGGGCCCUAUAAAUGGGCGCAGUGAUGUUGCGGCUAGGCCUCUGAGGACCGGGACUUUGUAGC [Tixelequ],221 nM,119 nM,58.9 nM,142 nM,156 nM
UCGUCUGUGUGAGGAUAUCCAAGCGAGCUGCGUACAGGUGCGGCGUUUGGAGUGAUGUUCCAGGCAGGAGAAGGCGCACGGGCUU [Esored],191 nM,247 nM,284 nM,285 nM,251 nM
UCUAAGGUCGAACCGGUAUGAUCACCGGAUACCAGAGGCGAAAGCCUCCCUUGGCAGCCGAGUGUAGUGAUGUUACACGGGUUCU,166 nM,147 nM,175 nM,310 nM,166 nM
UCUGUUGUAUAUGAUACCAGCAGUGAGAGACAGGAAGUAUAGUGAUGUUAUAUGAGAGAAUGCCCUUGGCAGCGUGUGCGGGUGG [SSTheophylB.X],138 nM,130 nM,165 nM,116 nM,99.1 nM
UCUUGCGGCGCAGGAUAUCCGUCUGUCUCCUGCGUCAUUCUGCAGUGAUGUUGCAGGUGACGGAUAGGAGAAGGGCGAACGUACA [Diinonorce],133 nM,104 nM,124 nM,117 nM,112 nM
UCUUUAGUAUAUGAUACCAGCAGUGAGAGACAGGAAGUAUAGUGAUGUUAUAUGAGAGAAUGCCCUUGGCAGCGUGUGCGGUGGG [SSTheophylB.T],132 nM,103 nM,93.4 nM,119 nM,101 nM
UGACAUUGCUCAGAUACCAGACAUGAGCAUCAGCCAUGUGCCAAACGUACAAUAAUAAAUGUCCCUUGGCAGCUGAGCAAUGUCU [TheoBX 14],74.2 nM,33.1 nM,53.1 nM,100 nM,44.8 nM
UGACAUUGCUCAGAUACCAGACUUGAGGAACACCCAAGUGCCAAAUAAACGUACAUAAAAGUCCCUUGGCAGCUGAGCAAUGUCU [TheoBX 11],66 nM,34.1 nM,62.5 nM,104 nM,45.3 nM
